Biological target: T1, SARS-CoV-2 spike S1 domain (D614G) (SARS-CoV-2, Wuhan-Hu-1 background with …, UniProt A0A6H1PJZ3, strain)
T1 construct: also called D614G S1 variant; source: bought: Sino Biological
Assay: SPR
Settings: both partners purified

B1: P4A1 (antibody, V domains shown)
VH: EVQLVESGGGLIQPGGSLRLSCAASGFIVSSNYMSWVRQAPGKGLEWVSIIYSGGSTFYADSVKGRFTISRDNSKNTLYLQMNSLRVEDTAVYYCARDLQELGSLDYWGQGTLVTVSS
VL: DIQMTQSPSSVSASVGDRVTITCRASQGISSWLAWYQQKPGKAPKLLIYAASSLQSGVPSRFSGSGSGTDFTLTISSLQPEDFATYYCQEANSFPYTFGQGTKLEIK
notes: also called P4A1 (IgG1); IgG1 form P4A1
B1: binds.

Source: article PMC8113581 (Nature Communications, 2021)
